From patent US20100233802A1

Key:
[1] = target: SNAP-25 peptide comprising amino acids 134-197 of SEQ ID NO: 5 (human); experiment: SPR, BIAcore 3000, peptide on CM5 chip, antibody as analyte, 1:1 model
[2] = target: SNAP-25 peptide comprising amino acids 134-206 of SEQ ID NO: 5 (human); experiment: as above

| Kd [1] | koff [1] | kon [1] | Kd [2] | koff [2] | kon [2] | Substance |
| --- | --- | --- | --- | --- | --- | --- |
| 0.497 nM | 0.000882 s⁻¹ | 1.78e+06 M⁻¹ s⁻¹ | 19.8 µM | 0.00607 s⁻¹ | 306 M⁻¹ s⁻¹ | mouse α-SNAP-25 monoclonal antibody MC-6050 (Research & Diagnostic Antibodies) |
| 0.508 nM | 0.00118 s⁻¹ | 2.32e+06 M⁻¹ s⁻¹ | 0.24 µM | 2.56e-05 s⁻¹ | – | mouse α-SNAP-25 monoclonal antibody MC-6053 (Research & Diagnostic Antibodies) |
